This note sets out measurements from article PMC7886630.

The target of test [1] is deglycosylated ACE2 treated with PNGase F (human) (UniProt Q9BYF1). Nature of the test: AFM single-molecule force spectroscopy.
Test [2] concerns the target soluble recombinant human ACE2 (Gln18-Ser740), His-tagged (human) (UniProt Q9BYF1). Nature of the test: AFM single-molecule force spectroscopy.

What is called koff is a measure of how fast the partners let go of each other. For the substance “SARS-CoV-1 spike receptor-binding domain (residues 318-510) with C-terminal Fc tag (Fc fusion; modification not given)”, the koff in test [1] amounted to 3.4 s⁻¹; in test [2], 0.57 s⁻¹.
